Assay results reported in the supplement of paper PMC9876800.

System: peptide library, one residue held at a place counted from the S/T acceptor
Assay: relative phosphorylation of the sub-library (ratio to the mean residue at this position); higher = residue favoured
Method in brief: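 Each biotinylated degenerate peptide sub-library fixed one residue at one position around a central Ser/Thr and was incubated with a purified recombinant kinase, a human or orthologue construct, in 384-well plates. The 90 min reactions, under kinase-specific conditions, contained 50 μM peptide and 50 μM ATP spiked with γ-32P-ATP. Phosphorylation was read by phosphorimaging spots on streptavidin membranes and quantifying them by densitometry. Relative sub-library phosphorylation expresses each value as a ratio to the mean residue at that position.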

CDK5, construct: Full length, human (from UniProt Q00535)
relative phosphorylation
Conditions	at +1	at +2	at +3	at +4	at -1	at -2	at -3	at -4	at -5
A fixed	0.423	1.13	0.791	1.07	1.16	1.08	1.05	1.15	1.22
D fixed	0.262	0.357	0.165	0.478	0.753	0.717	0.92	1.1	1.24
E fixed	0.305	0.516	0.12	0.512	0.747	0.842	1.02	0.993	1.03
F fixed	0.227	0.765	0.485	0.679	0.557	0.765	0.65	0.801	0.925
G fixed	1.25	1.06	0.809	1.56	1.86	1.21	1.47	1.47	1.35
H fixed	0.344	1.19	3.07	1.27	0.925	1.03	1.12	1.05	1.03
I fixed	0.261	0.87	0.444	0.828	0.346	0.646	0.742	0.642	0.63
K fixed	0.374	2.44	3.21	1.92	1.49	0.85	1.05	1.07	1.26
L fixed	0.278	0.831	0.536	0.754	0.697	0.958	0.673	0.689	0.625
M fixed	0.382	0.869	0.542	0.967	0.995	1.01	0.894	0.86	0.725
N fixed	0.569	0.828	1.08	0.81	1.17	1.01	1.17	1	0.916
P fixed	10.5	0.464	0.63	0.829	1.49	2.71	1.8	1.61	1.45
Q fixed	0.492	0.971	0.636	1.05	1.24	0.998	1.06	0.952	0.979
R fixed	0.373	2	3.14	1.57	1.48	0.788	1.06	0.988	1.07
V fixed	0.377	0.926	0.397	0.904	0.568	0.788	0.75	0.695	0.757
W fixed	0.285	0.763	0.463	0.957	0.722	0.786	0.811	1.1	0.766
Y fixed	0.258	1.01	0.49	0.836	0.805	0.817	0.763	0.825	1.01
pThr fixed	0.518	0.434	0.412	0.38	0.408	0.721	0.956	0.995	0.939
pTyr fixed	0.513	0.44	0.344	0.453	0.548	0.748	0.822	0.835	1.01
